The text below walks through data of patent US10653749B2, “Targeting GIV-GEF-GI signaling for treating diverse diseases” (The Regents of the University of California, priority 2015, dated 2020).

In one assay the test system is HeLa cells. Description: Scratch-wound 2D cell migration assay. Conditions: compared to mock treatment, 12 h and 24 h. In kind it is cell-based. As to the method:
Scratch-wound assays were done as described (49). Briefly, monolayer cultures (100% confluent) of HeLa cells were incubated first in a 0.2% serum media over night. The following morning, monolayers of HeLa cells were first transduced with TAT peptides for 30 min, then washed three times with PBS and placed again in a 0.2% serum media for 1 h 30 min before scratch-wounding. The wounds were created using a 20 μL pipette tip. Transduction with TAT peptides was repeated at 12 h into the wound healing assay (a total of two times). Healing wounds were monitored by phase-contrast microscopy over the next 24 h and serially photographed using a Canon digital SLR camera. To quantify cell migration (expressed as percent of wound closure) the acquired images were analyzed using Image J software to measure open wound area. Results were expressed as % closure by calculating the difference between the wound area at 0 h, 12 h and that at 24 h divided by the area at 0 h×100. Invasion assays were performed using Corning Transwell plates according to the manufacturer's protocol.
Scratch-wound assays were done as described previously (13). […] Healing wounds were monitored by phase-contrast microscopy over the next 24 h and migration index was quantified (expressed as % wound closure) by measuring the wounded area using Image J software.

Assay [1] deals with T1, Gαi1-YFP / CFP-Gβ1 / Gγ2 heterotrimer (Gi) (Homo sapiens, UniProt P63096).
T1 construct: expressed in transfected cells; host or cells: HeLa cells stably depleted of GIV by shRNA
T1 sequence (P63096 2-354 limits assumed, one chain of several): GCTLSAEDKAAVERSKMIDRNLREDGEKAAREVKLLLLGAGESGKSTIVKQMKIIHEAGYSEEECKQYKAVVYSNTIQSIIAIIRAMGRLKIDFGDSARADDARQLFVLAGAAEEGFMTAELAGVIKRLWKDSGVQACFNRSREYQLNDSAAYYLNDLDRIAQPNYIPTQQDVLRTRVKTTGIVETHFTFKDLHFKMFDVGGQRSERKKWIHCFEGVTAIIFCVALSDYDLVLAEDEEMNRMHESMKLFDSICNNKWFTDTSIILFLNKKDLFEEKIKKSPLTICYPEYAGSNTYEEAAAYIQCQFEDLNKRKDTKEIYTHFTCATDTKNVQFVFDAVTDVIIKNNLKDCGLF
The experiment in a line: FRET assay of Gi heterotrimer dissociation after EGF in GIV-depleted HeLa cells. Format: cell-based. The method, then:
HeLa cells stably depleted of GIV by shRNA were grown to 60-70% confluence in sterile 35 mm MatTek glass bottom dishes. One microgram each of various donor and acceptor plasmid constructs were transfected with Trans-IT-LT1 transfection reagent (Minis Bio LLC) using manufacturer's protocol. Cells were starved overnight in serum-free DMEM (Gibco), transduced the following morning with TAT proteins for 30 min, washed with PBS and subsequently the media was switched to DMEM without phenol red before live cell imaging. EGF stimulation was carried out ˜4 h after TAT transduction. Fluorescence microscopy studies were conducted on single cells in mesoscopic regime to avoid inhomogeneities from samples as previously rationalized by Midde et al. (55-57). Olympus FV1000 inverted confocal laser scanning microscope was used for live cell FRET imaging (UCSD-Neuroscience core facility). The microscope is stabilized on a vibration proof platform, caged in temperature controlled (37° C.) and CO2 (5%) supplemented chamber. A 60×1.49 N. An oil immersed objective designed to minimize chromatic aberration and enhance resolution for 405-605 nm imaging was used. Olympus Fluoview inbuilt software was used for data acquisition through the method of sensitized emission. A 405 nm laser diode was used to excite ECFP and 515 nm Argon-ion laser was used to excite EYFP. The bandwidth of spectral emission was adjusted through grating to minimize bleed through. Enhanced CFP emission was collected from 425 to 500 nm and EYFP emission was collected through 535-600 nm and passed through a […] confocal pinhole before being sent to photomultiplier tube to reject out of plane focused light. Every field of view is imaged sequentially through ECFPex/ECFPem, ECFPex/EYFPem and EYFPex/EYFPem (3 excitation and emission combinations) and saved as donor, transfer and acceptor image files through an inbuilt wizard.
To obtain the FRET images and efficiency of energy transfer values a RiFRET plugin in Image J software was used (58). FRET images were obtained by pixel-by-pixel ratiometric intensity method and efficiency of transfer was calculated by the ratio of intensity in transfer channel to the quenched (corrected) intensity in the donor channel. Cells transfected with CFP and YFP alone were imaged under all three previously mentioned excitation and emission combinations and are used to correct for cross-talk. Furthermore, untransfected cells and a field of view without cells were imaged to correct for background, autofluorescence and light scattering. Cells chosen for imaging were ensured for identical expression of donor and acceptor probes by the photons collected in individual channels.

Positions count from the first letter of the chain named. Names may count otherwise. “Also recorded” adds a separate entry of the source.

B1: TAT-GIV-CT-WT: Recombinant cell-permeable fusion of TAT-PTD, His and HA tags, linker and human GIV C-terminus (aa 1660-1870), wild type; SEQ ID NO: 2 (protein)
chain: MRGSHHHHHHGMASMTGGQQMGRDLYDDDDKDRWGSKLGYGRKKRRQRRRGGSTMSGYPYDVPDYAGSMGGSGHSGETLESRHHKIKTGSPGSEVVTLQQFLEESNKLTSVQIKSSSQENLLDEVMKSLSVSSDFLGKDKPVSCGLARSVSGKTPGDFYDRRTTKPEFLRPGPRKTEDTYFISSAGKPTPGTQGKIKLVKESSLSRQSKDSNPYATLPRASSVISTAEGTTRRTSIHDFLTKDSRLPISVDSPPAAADSNTTAASNVDKVQESRNSKSRSREQQSS
As to B1, the “2D-migration and wound closure” value with HeLa cells is “enhances”. For the same molecule, the “loss of FRET / dissociation of trimeric Gi in response to EGF” value in assay [1] (50 nM EGF, 5 min) was “significant loss of FRET; also recorded: sufficient to trigger dissociation of trimeric Gi”. In addition, the “FRET after EGF stimulation” value in assay [1] (50 nM EGF, 5 min, p=0.0011) is 0.15±0.07. Also, the “FRET before EGF stimulation” value in assay [1] (plasma membrane ROIs, t0) turned out to be 0.22±0.04.

B2: TAT-GIV-CT-FA: GEF-deficient F1685A mutant of the TAT-GIV-CT peptide, dominant-negative; SEQ ID NO: 3 (protein)
chain: B1 chain with F101A
B2: the “2D-migration and wound closure” value in the assay with HeLa cells (listed as FA) is “delayed wound closure and not”. Moreover, the “loss of FRET / dissociation of trimeric Gi in response to EGF” value in assay [1] (50 nM EGF, 5 min) was “No similar loss of FRET”; in assay [1] (50 nM EGF, 5 min, listed as FA), “not”.
